Experimental data taken from the nanobody polyreactivity screen of Harvey et al. (2022).

Assay: yeast display, Sf9 membrane polyspecificity reagent, FACS + sequencing; frameworks hold sequencing errors
Summary of the method: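 After 36–48 hours of galactose induction, yeast (Saccharomyces cerevisiae BJ5465) displaying a synthetic nanobody library were stained at 4 °C for 1 hour with 10% biotinylated, detergent-solubilized Sf9 membrane reagent. Streptavidin microbeads enriched the stained cells before FACS sorting into low and high (top ~1%) gates on anti-HA and streptavidin fluorescence. Each clone's polyreactivity label reflects its gate of origin.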

Row | Sequence | polyreactivity (PSR sort gate)
1 | QVQLVESGGGLVQAGGSLRLSCAASGSIFKQNAMGWYRQAPGKERELVASIRASGDRTYYADSVKGRFTISRDNAKNPVYLQMNSLKPEDSAVYYCAARRVRTRGYNYWGQGTQVTVSS | high polyreactivity
2 | QVQLVESGGGLVQAGGSLRLSCDASGITVAGYAMGWYRHAPGKEWELVAAISRGGSTYYADSVKGRFTISRDNAKNTVYLQMNSLKPEDTAVYYCNTDDQQGYFTYTGWNYNYWGQGTQVSVSS | high polyreactivity
3 | QVQLQESGGGLVLAGGSLRLSCAASGSISAQAYMGWDRQAPGKEREHVAGINYGDNTNYADSVKGRFTISRDNEHRVSADEQPETGRYRGVLLRGFLELFYYYIYWGQGTQVTVSS | high polyreactivity
4 | QVQLVESGGGLVQAGGSLRLTCAASGFIFRYYAMGWYRQAHGKEMELVAAIDYSGGSTNYADSVKGRFTISRDNSKNTVYLQMNSLKPEDTAVYYCKAEYTWHRGYDYWGLGTQVTVSS | low polyreactivity
5 | QDQLVESGGGLVQAGGSLRLSCAASGSTFVVNAMGWYRQAPGKERELVAAISSSGSSTYADSVKGRFTISRDNEKNTVYLQMNCLKPEDTAVYYCHKTTLLTVEYDYWGQGTQVSVSS | low polyreactivity
6 | QVQLVESGGGIVQAGGSLRLSCAASGRTFNFYAMGWYRQAPGKERELVAAIRKSGASTYYADSVKGRFTISRDNAKNTVYLQMNSLKPEDTAVYYCAADGQVSYALGFDYWGQGTQVTVSS | high polyreactivity
7 | QVQLVESGGGLVQAGGSLRLSCAASGRTFVNYAMGWYSQAPGKERELVAAISWTDDDTYYADSVKGRFTISRDNAKNTVYLQMNSLKPEDTAVYYCATDYDSYDYWGQGTQVTVSS | low polyreactivity
8 | QVQHVASGGGLVQAGGSLRLSCAASGNIFRYYTMGWYRQAPGKERELVATISYADSVKGRFTISRDNAKNTVYLQMNSLKPEDTAVYYWNAVFAPWDKQDYPYDYDYWGQGTQVTVSS | low polyreactivity
9 | QVQLVESGGGLVQAGGSLRLSCAASGSTFVYNTMGWYRQAPGKERELVAAISKSGTNTFYADSVKGRFTISRDNAKNTVYLQMNSLKPEDTAVYYCAVRSVPRWFTELDYWGQGTQVTVSS | low polyreactivity
10 | QVQLVESGGGLVQAGGSLRLSCAASGFIFIANGMGWNSQAPGKERALVAAITSGGGNTYYADSVKGRFTISRDNAKNTVYLQMNSLKPEDTAVYYCNAPSYGKFDYWGQGTQVTVSS | high polyreactivity
11 | QVQLVESGGGLVQAGGSLRLSCAASGRIFDSNAMGWYRQAPGKERELVAAITYSGGGTFYADSVKGRFTISRDNAKNTVYLQMNRLKPEDTAVYYCNAGYFTEYNSWGQGTQVTVSS | high polyreactivity
12 | QVQLVESGGGLVQAGGSLRLSCAASGSTFGYNTMGWYRQAPGKERELVAAITSGGRTYYADSVKGRFTISRDNAKNTVYLQMNILKPEDTAVYYCAAYYWWGYPENDYWGQGTQVTVSS | high polyreactivity
13 | QVQLVESGGGLVQAGGSLRLSCAASGLIFGVNAMGWYRQAPGKERELVAAISWSGSSTNYADSVKGRFTISRDNAKNTVYLQMNSLKPEDTAVYYCATDQGYRYLKIYVYGDAFDYWGQGTQVTVSS | low polyreactivity
14 | QVQLLESRGGLVQAGGSLRLSCAASGSIFYIYAIGWYRQAPGKEREFVAAIRQSDGRTYYADSVKGRFTISRDNAKNTVYLQRTSLNPEDTAVYYCAAQYPVNYIWGYNDWGQGTQVTVSS | high polyreactivity
15 | QVQLVESGGGLVQAGGSLRLSCSASGRTFSSNAMGWYRKAPGKERELVAAITWSGGTTYYADSVKGRFTISRDNAKNTVYLQMNSQKPEDTAVYYCNAKRRGYTASVGYWGQGTQVTVSS | high polyreactivity
16 | QVQLVESGGGLVQAGGSLRISCAASGSTFDPYGMGWYRQAPGTERELVAAITSSGRTNYADSVKGRFTISRDNAKNTVYLQMNSLKPEDTAVYYCATRKERYFYRGYEYWGQGTQVTVSS | low polyreactivity
17 | QVQRVESGGGLVQAGCSLLLSCASSGNIFTRNAMGGYRHAPGKEREWVAAISTSGGRTYYADSVKGRFTISRDNAKNTVYLQMYSLKPEDTAVYYCAADYLSGTELYYWGQGTQVTVSS | high polyreactivity
18 | QVQLVESGGGLVQAGGSLRLSCAASGRTFIPYAMGWYRQAPGKERELVATIRRGGSTYYADSVKGRFTISRDNAKNTVYLQMYSLKPEDTAVYYCAATRYSFGPRRVDYWGQGTQVTVSS | high polyreactivity
19 | QVQLVESGGGLVQARGSHRISCAASGRTITFNAMGWYRQAPGKQRELVAGIDLSTTSTYYADSVKGRFTISRDNAKNTVYLQMNSLKPEDCAVYYCNAYRNADYDYWGQGTLVTVSS | low polyreactivity
20 | QVQLVESGGGLVQAGGSLRLSCAASGFTLLGNTMGWSRQAPGKERELVAAIRTNSGRTYYADSVKGRFTISRDNAKNTVYLQMNSLKPEDTAVYYCNAQSYRSDSAYHYNYDYWGQGTQVTVSS | high polyreactivity
21 | QVQLVESGGGLVQAGGSLRLSCAASGRPFVGNVMGWYRQAPGKERELVDAITRTAGSTYYADSVKGRFTISRDNAKNTVYLEMNSLKPEDTAVDYCAVEGIYRWYDYSWYYTSTYDYWGQGTQVTVSS | low polyreactivity
22 | QVQLVESGGGLVQAGGSLRLSCAASGSIFKAYAMGWYRQAPGKERELVAAITWSAGSTYYADSVKGRFTISRDNAKNTVYLQMNSLKPEDTAVYYCAAEVRGSYYLTGYDYWGQGTQVTVSS | high polyreactivity

Row | Sequence | polyreactivity (PSR sort gate)
23 | QVQLVESGGGLVQAGGSLRLSCAASGSIFGYNVMGWYRQAPGKERELVAAISSSTGSTNYADSVKGRFTISRDNAKNTVYLQMNSLKPEDTAVYYCAVDPYVHWTTKLYDYWGQGSQVTVSS | low polyreactivity
24 | QVQLVESGGGLVQAGGSLRLSCAASGLIFYPYAMGWYRQAPGKERELVAAITSDGSTYYADSVKGRFTISRDNAKNTVYLQMNSLKPEDTAVYYCAVVVAYFDDDYGLSWFYEYDYWGQGTQVTVSS | low polyreactivity
25 | QVQLVESGGGLVQAGGSLRLSCAASGSIFSQNAMGWYRQAPGKERELVAAITSSGGNTYADSVKGRFTISRDNAKNTVYLQMNRLKPEDTAVYYCAAGHLVILNRSEYYYWGQGSQVTVSS | low polyreactivity
26 | QVQLVESGGGLVQAGGSLRLSCAPSGFSIIGNAMGWYRQAPGKERELVAAISRRGGSTYYADSVKGRFTISRDNAKNTVYLQLNSLKPEDTAVYYCATDPGARVHYPTGDYWGQGTQVTVSS | high polyreactivity
27 | QVQLVESGGGLVQAGGSLRLSCHASGSTFTFNAMGWYRQAPGKERELVADITSGGRTNYADSVKGRFTISRDNAKNTVYLQMNSLKPEDTAVYYCAARWSAHEYPGYDSWGQGTQVTVSS | low polyreactivity
28 | QVLLVESGGGLVQAGGSLSISCAASGSTFGYYPMGWYRQAPGKEREFVAAISSRDGSTFYADSVQGRFTISRDNAKNTVYLQMNSLKPEDTAVYYCAKVFFHTPIVPEYDYWGQGTQVTVSS | low polyreactivity
29 | QVQLVESGGGLVQAGGSLRLSCAASGFTFTSYTMGWYRQAPGKERELVAVISWSGGGTYYADSVKGRFTISRDNAKNTVYLQMNSLKPEDTAVYYCNKAPTNLFGGRYDYWGQGTQVTVSS | low polyreactivity
30 | QVQLVESGGGLVQAGGSLRLSCAASGSLFSTYAMGWYRPAPGKERELVAAIPTSGGRTYYADSVKGRFTISRDNAKNTVYLQMNSLKPEDTAVYDCNAVRGGRYGLDYWGQGTQVTVSS | high polyreactivity
31 | QVQLVESGGGLVQAGGSLRLSCAASGRILRYNAMGWYRQAPGKERELVASISGNGGSTYYADSVKGRFTISRDNAKNTVYVQMNSLKPEDTAVYYCNKYYYSSRGQKEYDYWGQGTQVTVSS | low polyreactivity
32 | QVQLVESGGGLVQAGGSLRLSCAASGRTFDLYAMGWDRQAPGKERELVAAITKGGGSTYYADSVKGRFTISRDNAKNTVYLQMNSLKPEDSAVYYCAARKYKRIYRISSGIGYYWGHGTQVTVSS | high polyreactivity
33 | QVQIVESGGGLVQAGGSLRLSCAASGSTSLVNAMGWYRQAPGKESELVAAITRGGNTYYADSVKGRFTISRDNAKNTVYLQMNSLKPEDTAVYYCAADFWRFYYEYDYWGQGTQVTVSS | low polyreactivity
34 | QVQLVESGGGLVQAGGSLRLSCAASGRIFGIYAMRWYRQAPGKERELVAAISYSGGSTYYADSVKGRFTISRDNAKNTVYLQMNSLNPEDTAVYYCNADYYASYYPYYSIRLDYLGQGTQVTVSS | low polyreactivity
35 | QVQLVESGVCLVQAGGSLRLSCAASGFTYYFYTMGWYRQAPGKERELVARITARGGSTYYADSVKGRFTISRDNAKNTVYLQMNSLKPEDTAVYYCAAVTYFGWYPYRMEYWGQGTQVTVSS | high polyreactivity
36 | QVQLVESGGGLVQAGGRLRLSCAASGSTFAIYGMGWYRQAPGKERELVAGITRGGSTNYADSVKGRFTISRDNAKNTVYLQMNSLKPEDTAVYYCNSPFGVRRFKTKGRSHYEYWGQGTQVTVSS | high polyreactivity
37 | QVQLVESGGGLVQAGGSLRLSCAVSGFNFPYYAMGWYRQAPGKERELVAAINQRGGSTYYADSVKGRFTISRDNAKNTVYLQMNSLKPEDTAVYYCAADRHSKTYYYSYGYWGQGTQVTVSS | high polyreactivity
38 | QVQLVESGGGLVQAGGSLRLSCAASGSIFSYYVMGWYRQAPGKERELVAAISWSGGSTYYADSVKGRFTISRDNSKNTVYLQMNSLKPEDTAVYYCAAGTYPYYWGQGTQVTVSS | low polyreactivity
39 | QVQLVESGGGLVQAGGSLRLSCAASGIIFYEFTMGWYRQAPGKERELVATISWSGGSTYYADSVKGRFTISRDNAKNTVYLQMNSLQPEDTAVYYCAADFADVQSISPDSAHEYDYWGQGTQVTVSS | low polyreactivity
40 | QVQLVESGGGLVQAGGSLRLSCAASGFNIYYYTMGWYRQAPGKERELVAAISKSGGNTYYADSVKGRFTISRDNAKNTVYLQMNSLKPEDTAVYYCAASRYNTVTYYYWGQGTQVTVSS | high polyreactivity
41 | QVQLEESGGGLVQAGGSLRLICAASGRNFGYYPMGWYRQAPGKERELVAAISGSGGTTYYADSVKGRFTISRDIAKNTVYLQMISLKPEDTAVYYCNAGFGYYWHRGFFQYDYWGQGTQVTVSS | high polyreactivity
42 | QVQLVESGGGLVQAGGSLRLSCAASGFIFINYAMGWNRPAPGKERELVAAISSRGGSTYYADSVKGRFTISRDNAKNTVYLQMNSLKPEDTAVYYCNADQSFRIVTFDYWGQGTQVTVSS | high polyreactivity
43 | QVQLVESGGGLVQAGGSLRLSCAASGSTLGRYAMGWYRQAPGKERELVASITWSDDSTYYADSVKGRFTISRDNAKNTVYLQMNSLKPEDTAVYYCAAAGNLYTYRFYYWGQGTQVTVSS | low polyreactivity
